Target: the molecule itself
Assay: SEC; in vitro acid screen of purified VLPs; HPLC SEC peak height relative to pH 7.3 (normalized acid tolerance, n = 3)

B1: MS2 bacteriophage coat protein CP[T71H/E76C] (natural protein)
chain: ASNFTQFVLVDNGGTGDVTVAPSNFANGVAEWISSNSRSQAYKVTCSVRQSSAQNRKYTIKVEVPKVATQHVGGVCLPVAAWRSYLNMELTIPIFATNSDCELIVKAMQGLLKDGNPIPSAIAANSGIY
notes: MS2 bacteriophage coat protein (MS2 CP); also called CP[T71/E76C]; double mutant
binding result: binds

From PMC5895741, “Quantitative characterization of all single amino acid variants of a viral capsid-based drug delivery vehicle” (Nature Communications, 2018)
